Laboratory results: publication PMC9416875, “Structural basis for non-canonical integrin engagement by Bordetella adenylate cyclase toxin” (Cell reports, 2022)

Biological target: RTX751 (Bordetella pertussis adenylate cyclase toxin, ACT, residues 751-1,706) (Bordetella pertussis, UniProt P0DKX7)
Assay: […], room temperature 20 min; […]; 20 mM Tris pH 7.5, 150 mM NaCl, 1 mM CaCl2, 1 mM MgCl2; […]
Details: both partners purified

B1: M1F5 Fab (anti-ACT RTX domain antibody M1F5) (Fab, V domains shown)
VH: QVQLKQSGPELVKPGASVRMSCKGSGYSFTFHNIHWVKQRPGQGLEWIGWIYPGDGNTKYNEKFKGKTTLTVDKSSNTAYMLLSSLTSEDSAIYFCAYGNYYFDQWGQGTTLTVSS
VL: IQMMQSTSSLSASLGDRVTISCSASQGITNYLNWYQQKPDGTVKLLIYYTSSLHSGVPSRFSGSGSGTDYSLTISNLEPEDIATYYCQQYSNLPWTFGGGTKLEIK
notes: also called M1F5 antibody; M1F5 IgG
For B1, the “stoichiometry N” value was 1.
